Assay results as given in PMC9135737.

Molecular target: Roseovarius indicus B108 MmtN (the sample called MmtN in the DLS analysis) (Roseovarius indicus B108)
Assay: dynamic light scattering; DynaPro NanoStar, 4 °C, 2 μl of 2.5 mg ml^-1 protein in 10 mM Tris-HCl, 100 mM NaCl, pH 8.0

- stoichiometry N: 3
Substance: Roseovarius indicus B108 MmtN (the sample called MmtN in the DLS analysis) (enzyme)
